Patent US20200317768A1 (published 2020)
Residue numbers refer to the chain shown, from its start.

T1: cynomolgus monkey FcγRIIa3 extracellular domain, His-tagged (cynomolgus monkey)
T1 construct: also called cyno FcγRIIa3; cynoFcgRIIa3
T1 chain: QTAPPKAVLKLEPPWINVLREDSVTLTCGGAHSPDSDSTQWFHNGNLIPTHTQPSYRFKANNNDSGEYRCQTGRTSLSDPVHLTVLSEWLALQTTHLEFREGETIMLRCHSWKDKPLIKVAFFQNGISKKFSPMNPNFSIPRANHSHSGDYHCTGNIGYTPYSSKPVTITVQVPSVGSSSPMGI

T2: cynomolgus monkey FcγRIIa1 extracellular domain, His-tagged (cynomolgus monkey)
T2 construct: also called cyno FcγRIIa1; cynoFcgRIIa1
T2 chain: T1 chain with T95P, A121T, S128A, P133H, N135D

T3: human FcγRIIaH extracellular domain, His-tagged (human, UniProt P12318 34-217)
T3 construct: also called human FcγRIIa (type H); FcgRIIaH
T3 sequence: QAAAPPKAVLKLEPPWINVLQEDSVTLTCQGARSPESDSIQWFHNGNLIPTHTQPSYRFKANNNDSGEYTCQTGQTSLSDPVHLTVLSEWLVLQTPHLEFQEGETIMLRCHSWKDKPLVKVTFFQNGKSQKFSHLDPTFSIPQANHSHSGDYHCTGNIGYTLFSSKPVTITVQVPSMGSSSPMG

T4: cynomolgus monkey FcγRIIIaS extracellular domain, His-tagged (cynomolgus monkey, UniProt Q8SPW2 21-206 at identity 1.00))
T4 construct: also called cyno FcγRIIIaS; cynoFcγRIIIaS
T4 chain: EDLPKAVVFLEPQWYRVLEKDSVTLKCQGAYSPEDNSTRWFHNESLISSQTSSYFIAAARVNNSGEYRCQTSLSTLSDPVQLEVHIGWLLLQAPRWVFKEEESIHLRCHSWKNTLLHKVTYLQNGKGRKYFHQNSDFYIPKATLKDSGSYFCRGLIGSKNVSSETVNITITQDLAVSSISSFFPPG

T5: cynomolgus monkey FcγRIIb extracellular domain, His-tagged (cynomolgus monkey)
T5 construct: also called cyno FcγRIIb; cynoFcγRIIb
T5 chain: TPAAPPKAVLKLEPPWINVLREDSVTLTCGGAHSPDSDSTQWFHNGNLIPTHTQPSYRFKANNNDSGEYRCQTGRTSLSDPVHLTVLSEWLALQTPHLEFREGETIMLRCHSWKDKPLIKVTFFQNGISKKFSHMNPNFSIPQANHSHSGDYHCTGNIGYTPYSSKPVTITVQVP

T6: human FcγRIIb extracellular domain, His-tagged (human, UniProt P31994 43-217)
T6 construct: also called FcgRIIb (human)
T6 sequence: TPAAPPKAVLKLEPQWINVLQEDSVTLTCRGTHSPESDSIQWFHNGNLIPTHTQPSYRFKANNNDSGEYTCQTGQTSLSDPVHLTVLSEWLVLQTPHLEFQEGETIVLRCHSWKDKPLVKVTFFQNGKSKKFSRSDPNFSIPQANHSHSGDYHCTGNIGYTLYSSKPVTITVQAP

T7: human FcγRIIaR extracellular domain, His-tagged (human, UniProt P12318 34-217)
T7 construct: also called human FcγRIIa (type R); FcgRIIaR
T7 chain: T3 sequence with H134R

T8: cynomolgus monkey FcγRIIa2 extracellular domain, His-tagged (cynomolgus monkey)
T8 construct: also called cyno FcγRIIa2; cynoFcgRIIa2
T8 chain: T1 chain with I127K, K130N, P133H, R142Q

B1: M103205H795-MY001/M103202L889-SK1 (antibody, human IgG1, kappa)
heavy: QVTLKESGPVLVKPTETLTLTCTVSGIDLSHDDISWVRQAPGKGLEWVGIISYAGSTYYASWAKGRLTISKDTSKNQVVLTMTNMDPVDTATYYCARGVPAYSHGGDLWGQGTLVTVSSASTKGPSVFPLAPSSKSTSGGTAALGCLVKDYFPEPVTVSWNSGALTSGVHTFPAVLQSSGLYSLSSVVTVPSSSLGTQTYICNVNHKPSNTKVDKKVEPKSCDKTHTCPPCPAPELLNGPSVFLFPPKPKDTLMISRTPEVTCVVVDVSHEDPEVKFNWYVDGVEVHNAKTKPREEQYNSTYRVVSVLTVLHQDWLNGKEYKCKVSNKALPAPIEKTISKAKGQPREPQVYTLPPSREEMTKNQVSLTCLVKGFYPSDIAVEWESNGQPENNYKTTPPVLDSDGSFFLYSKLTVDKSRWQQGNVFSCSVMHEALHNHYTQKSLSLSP
light: DIVMTQSPATLSLSPGERATLSCTSSQSVYHANWLSWFQQKPGQPPKLLIYWASTLAYGVPSRFSGSGSGTDFTLTISSLQPEDAATYYCAGGYGGGRYAFGQGTKVEIKRTVAAPSVFIFPPSDEQLKSGTASVVCLLNNFYPREAKVQWKVDNALQSGNSQESVTEQDSKDSTYSLSSTLTLSKADYEKHKVYACEVTHQGLSSPVTKSFNRGEC
notes: Substitution put into M103205H795-SG1
B2: M103205H795-MY074/M103202L889-SK1 (antibody, human IgG1, kappa)
heavy: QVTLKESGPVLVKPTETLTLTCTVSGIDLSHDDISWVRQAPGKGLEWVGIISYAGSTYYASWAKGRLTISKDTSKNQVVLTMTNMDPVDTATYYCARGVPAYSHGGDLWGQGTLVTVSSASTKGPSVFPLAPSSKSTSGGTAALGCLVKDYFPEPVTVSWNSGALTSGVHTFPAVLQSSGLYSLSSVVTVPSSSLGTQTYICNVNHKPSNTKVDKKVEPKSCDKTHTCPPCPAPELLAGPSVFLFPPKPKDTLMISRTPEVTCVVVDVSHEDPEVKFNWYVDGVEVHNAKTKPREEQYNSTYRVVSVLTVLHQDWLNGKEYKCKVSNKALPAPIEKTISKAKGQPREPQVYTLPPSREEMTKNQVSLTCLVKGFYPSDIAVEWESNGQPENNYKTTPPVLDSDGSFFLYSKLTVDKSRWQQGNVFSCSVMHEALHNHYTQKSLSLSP
light: B1 light
notes: as for B1
B3: M103205H795-MY011/M103202L889-SK1 (antibody, human IgG1, kappa)
heavy: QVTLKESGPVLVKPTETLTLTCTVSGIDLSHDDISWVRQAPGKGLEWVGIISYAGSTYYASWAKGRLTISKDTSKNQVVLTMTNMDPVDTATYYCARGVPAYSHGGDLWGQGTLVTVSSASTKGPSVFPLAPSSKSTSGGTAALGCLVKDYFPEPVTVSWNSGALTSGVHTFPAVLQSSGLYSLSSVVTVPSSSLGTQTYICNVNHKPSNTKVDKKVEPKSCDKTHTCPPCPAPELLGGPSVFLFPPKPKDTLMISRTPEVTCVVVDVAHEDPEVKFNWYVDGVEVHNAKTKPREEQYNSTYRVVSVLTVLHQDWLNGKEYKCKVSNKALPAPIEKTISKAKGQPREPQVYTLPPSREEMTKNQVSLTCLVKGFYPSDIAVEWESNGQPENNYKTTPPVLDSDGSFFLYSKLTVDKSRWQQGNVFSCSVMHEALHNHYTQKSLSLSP
light: B1 light
notes: Put into M103205H795-SG1
B4: M103205H795-MY042/M103202L889-SK1 (antibody, human IgG1, kappa)
heavy: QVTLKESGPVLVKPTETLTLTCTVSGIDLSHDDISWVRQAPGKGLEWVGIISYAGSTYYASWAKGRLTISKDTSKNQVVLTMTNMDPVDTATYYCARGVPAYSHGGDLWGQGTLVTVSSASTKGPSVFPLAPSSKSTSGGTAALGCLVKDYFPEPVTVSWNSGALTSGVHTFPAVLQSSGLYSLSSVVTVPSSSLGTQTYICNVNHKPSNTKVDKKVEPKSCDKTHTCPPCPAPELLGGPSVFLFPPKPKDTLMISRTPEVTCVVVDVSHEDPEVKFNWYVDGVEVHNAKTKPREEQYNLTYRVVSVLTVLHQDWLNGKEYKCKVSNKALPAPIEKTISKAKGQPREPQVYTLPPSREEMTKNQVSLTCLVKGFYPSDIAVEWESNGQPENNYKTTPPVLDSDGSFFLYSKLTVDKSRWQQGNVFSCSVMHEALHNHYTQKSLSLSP
light: B1 light
notes: as for B1

Molecular target: T1, cynomolgus monkey FcγRIIa3 …
Test: SPR, antibody captured, FcgR analyte
Description: (§1) The kinetic analysis of interactions between these antibodies and FcγR was carried out using BIACORE® T200 or BIACORE® 4000 (GE Healthcare). HBS-EP+ (GE Healthcare) was used as the running buffer, and the measurement temperature was set to 25° C. A chip produced by immobilizing Protein A. Protein A/G or mouse anti-human IgG kappa light chain (BD Biosciences) onto a Series S Sensor Chip CM4 or CM5 (GE Healthcare) by the amine-coupling method was used. […] After the measurement, the antibody captured on the chip was washed off by allowing reaction with 10 mM glycine-HCl, pH1.5 and 25 mM NaOH so that the chip was regenerated and used repeatedly. The sensorgrams obtained as measurement results were analyzed by the 1:1 Langmuir binding model using the BIACORE® Evaluation Software to calculate the binding rate constant ka (L/mol/s) and dissociation rate constant kd (l/s), and the dissociation constant KD (mol/L) was calculated from these values. […] Regarding such interactions, KD values were calculated using the following 1:1 binding model described in BIACORE® T100 Software Handbook BR1006-48 Edition AE.
(§2) The behavior of interacting molecules according to the 1:1 binding model on BIACORE® can be described by Equation 1: Req=C·R max/(KD+C)+RI, wherein, Req is a plot of steady-state binding levels to analyte concentration. C is concentration, RI is bulk refractive index contribution in the sample, and Rmax is analyte binding capacity of the surface. When this equation is rearranged, KD can be expressed as Equation 2: KD=C·Rmax/(Req−RI)−C. KD can be calculated by substituting the values of Rmax, RI, and C into Equation 1 or Equation 2. From the current measurement conditions, RI=0, C=2 μmol/L can be used.

Kd [nM]	Binder
15000	B1
6200	B2
9900	B3
8000	B4

Molecular target: T2, cynomolgus monkey FcγRIIa1 …
Test: SPR, antibody captured, FcgR analyte
Description: as §1, §2

Kd [nM]	Binder
2900	B1
2000	B2

molecular target: T9, human FcγRIIIaV extracellular domain, His-tagged (human, UniProt P08637 17-208); test: SPR, antibody captured, FcgR analyte
T9 construct: also called FcgRIIIaV
T9 sequence (P08637 17-208 F176V): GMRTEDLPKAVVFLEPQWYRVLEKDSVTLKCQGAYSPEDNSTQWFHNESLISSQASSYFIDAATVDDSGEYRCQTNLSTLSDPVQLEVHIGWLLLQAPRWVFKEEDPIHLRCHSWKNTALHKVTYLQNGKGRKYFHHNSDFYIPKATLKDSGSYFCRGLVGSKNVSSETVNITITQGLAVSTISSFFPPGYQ
Description: as §1, §2

Kd [nM]	Binder
560	B2
340	B3
530	B4

molecular target: T3, human FcγRIIaH extracellular domain, …; test: SPR, antibody captured, FcgR analyte
Description: as §1, §2

Kd [nM]	Binder
3200	B1
92	B2
490	B3
1000	B4

Molecular target: T4, cynomolgus monkey FcγRIIIaS …
Test: SPR, antibody captured, FcgR analyte
Description: as §1, §2

Kd [nM]	Binder
1200	B1
270	B2
150	B3
440	B4

Molecular target: T5, cynomolgus monkey FcγRIIb extracellular …
Test: SPR, antibody captured, FcgR analyte
Description: as §1, §2

Kd [nM]	Binder
1800	B1
1100	B2
1000	B3
1600	B4

molecular target: T6, human FcγRIIb extracellular domain, …; test: SPR, antibody captured, FcgR analyte
Description: as §1, §2

Kd [nM]	Binder
7700	B1
8600	B2
660	B3
4000	B4

Molecular target: T7, human FcγRIIaR extracellular domain, …
Test: SPR, antibody captured, FcgR analyte
Description: as §1, §2

Kd [nM]	Binder
8200	B1
170	B3
980	B4

Molecular target: T8, cynomolgus monkey FcγRIIa2 …
Test: SPR, antibody captured, FcgR analyte
Description: as §1, §2

Kd [nM]	Binder
3500	B1
2800	B3
3100	B4

Molecular target: T1, cynomolgus monkey FcγRIIa3 …
Test: SPR; KD of SG1 / KD of variant;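 also: relative to parent M103205H795-SG1 carrying the SG1 human heavy chain constant region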

KD fold (SG1 = 1) [fold]	Binder
1.2	B1
2.7	B2
1.7	B3
2.1	B4

Molecular target: T2, cynomolgus monkey FcγRIIa1 …
Test: SPR; KD of SG1 / KD of variant;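 also: relative to parent M103205H795-SG1 carrying the SG1 human heavy chain constant region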

KD fold (SG1 = 1) [fold]	Binder
1.1	B1
1.6	B2
1.4	B3
6.3	B4

molecular target: T9, human FcγRIIIaV extracellular domain, …; test: SPR; KD of SG1 / KD of variant;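 also: relative to parent M103205H795-SG1 carrying the SG1 human heavy chain constant region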

KD fold (SG1 = 1) [fold]	Binder
0.84	B1
1.45	B2
2.38	B3
1.53	B4

molecular target: T3, human FcγRIIaH extracellular domain, …; test: SPR; KD of SG1 / KD of variant;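 also: relative to parent M103205H795-SG1 carrying the SG1 human heavy chain constant region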

KD fold (SG1 = 1) [fold]	Binder
0.2	B1
7.5	B2
1.4	B3
0.7	B4

Molecular target: T4, cynomolgus monkey FcγRIIIaS …
Test: SPR; KD of SG1 / KD of variant

KD fold (SG1 = 1) [fold]	Binder
0.03	B1
1.33	B2
2.4	B3
0.82	B4

Molecular target: T5, cynomolgus monkey FcγRIIb extracellular …
Test: SPR; KD of SG1 / KD of variant

KD fold (SG1 = 1) [fold]	Binder
1	B1
1.6	B2
1.8	B3
1.1	B4

molecular target: T6, human FcγRIIb extracellular domain, …; test: SPR; KD of SG1 / KD of variant

KD fold (SG1 = 1) [fold]	Binder
0.6	B1
1.3	B2
7	B3
1.2	B4

Molecular target: T7, human FcγRIIaR extracellular domain, …
Test: SPR; KD of SG1 / KD of variant

KD fold (SG1 = 1) [fold]	Binder
0.1	B1
5.2	B2
6.5	B3
1.1	B4

Molecular target: T8, cynomolgus monkey FcγRIIa2 …
Test: SPR; KD of SG1 / KD of variant

KD fold (SG1 = 1) [fold]	Binder
1.4	B1
2.2	B2
1.8	B3
1.6	B4
